In article PMC2706832 (Protein expression and purification, 2009):
Where two headings read alike, the source gives them in different places. fluorescein‑5‑maleimide = fluorescein-5-maleimide

What was measured:
[1] = target: T1, wild-type CCR1 expressed on HEK293 cells (human, UniProt P32246 1-355); assay: cell-based or functional assay
T1 sequence (looked up): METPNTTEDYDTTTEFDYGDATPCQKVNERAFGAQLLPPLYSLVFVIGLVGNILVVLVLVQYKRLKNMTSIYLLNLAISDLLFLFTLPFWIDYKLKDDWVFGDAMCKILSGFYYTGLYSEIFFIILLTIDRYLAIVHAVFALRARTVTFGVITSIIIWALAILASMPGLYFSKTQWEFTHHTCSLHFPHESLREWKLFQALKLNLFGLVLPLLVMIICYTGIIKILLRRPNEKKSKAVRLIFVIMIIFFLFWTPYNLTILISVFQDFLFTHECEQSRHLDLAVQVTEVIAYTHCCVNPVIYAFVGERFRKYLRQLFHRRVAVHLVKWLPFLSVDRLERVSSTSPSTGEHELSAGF

[2] = target: T1, wild-type CCR1 expressed on HEK293 cells; assay: radioligand binding
[3] = target: T2, CCR1 solubilized from HEK293 membranes and purified in detergent/lipid micelles (human, UniProt P32246 1-355); assay: fluorescence polarisation
T2 sequence (looked up): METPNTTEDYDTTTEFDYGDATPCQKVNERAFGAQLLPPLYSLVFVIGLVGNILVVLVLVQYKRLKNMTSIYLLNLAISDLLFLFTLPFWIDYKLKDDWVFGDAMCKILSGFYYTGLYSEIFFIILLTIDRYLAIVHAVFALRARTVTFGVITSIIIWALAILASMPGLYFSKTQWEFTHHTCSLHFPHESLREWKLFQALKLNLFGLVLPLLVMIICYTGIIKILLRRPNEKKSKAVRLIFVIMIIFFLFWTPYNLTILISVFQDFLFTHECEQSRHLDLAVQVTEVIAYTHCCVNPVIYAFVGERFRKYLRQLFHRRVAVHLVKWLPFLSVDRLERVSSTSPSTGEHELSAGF

[4] = target: T2, CCR1 solubilized from HEK293 membranes …; assay: fluorescence polarisation; remark: listed apart in the source
[5] = target: T2, CCR1 solubilized from HEK293 membranes …; assay: fluorescence polarisation; remark: listed apart in the source
[6] = target: T2, CCR1 solubilized from HEK293 membranes …; assay: fluorescence polarisation; remark: listed apart in the source
[7] = target: T2, CCR1 solubilized from HEK293 membranes …; assay: fluorescence polarisation; remark: listed apart in the source

B1: CCL7 (ligand)
chain: not shown
Q: How did the “EC50 of calcium mobilization in CCR1-transfected HEK293 cells (FLIPR Calcium 4)” value [1] turn out when B1 was run?
A: 8 nM

B2: wild-type CCL3 (ligand, UniProt P10147 24-92, looked up)
chain: SLAADTPTACCFSYTSRQIPQNFIADYFETSSQCSKPGVIFLTKRSRQVCADPSEEWVQKYVSDLELSA
Q: For B2, which IC50 [2] is on record?
A: 0.9 nM

B3: CCL14-fluorescein (ligand)
chain: GPYHPSECCFTYTTYKIPRQRIMDYYETNSQCSKPGIVFITKRGHSVCTNPSDKWVQDYIKDMKENC(fluorescein‑5‑maleimide)
Q: How did the Kd [3] turn out when B3 was run?
A: > 1000 nM

Q: And the Kd [4]?
A: 21 nM

Q: What about the Kd [5] of the same binder?
A: 35 nM

Q: What about the Kd [6] of the same binder?
A: > 1000 nM

Q: And the Kd [7]?
A: > 1000 nM
